Legend:
[1] = molecular target: porcine fibrin (porcine) (UniProt P14460)
[2] = molecular target: human fibrin (human) (UniProt P02671)
Sequence of UniProt P02671 (P02671 36-866, chain 1 of 3): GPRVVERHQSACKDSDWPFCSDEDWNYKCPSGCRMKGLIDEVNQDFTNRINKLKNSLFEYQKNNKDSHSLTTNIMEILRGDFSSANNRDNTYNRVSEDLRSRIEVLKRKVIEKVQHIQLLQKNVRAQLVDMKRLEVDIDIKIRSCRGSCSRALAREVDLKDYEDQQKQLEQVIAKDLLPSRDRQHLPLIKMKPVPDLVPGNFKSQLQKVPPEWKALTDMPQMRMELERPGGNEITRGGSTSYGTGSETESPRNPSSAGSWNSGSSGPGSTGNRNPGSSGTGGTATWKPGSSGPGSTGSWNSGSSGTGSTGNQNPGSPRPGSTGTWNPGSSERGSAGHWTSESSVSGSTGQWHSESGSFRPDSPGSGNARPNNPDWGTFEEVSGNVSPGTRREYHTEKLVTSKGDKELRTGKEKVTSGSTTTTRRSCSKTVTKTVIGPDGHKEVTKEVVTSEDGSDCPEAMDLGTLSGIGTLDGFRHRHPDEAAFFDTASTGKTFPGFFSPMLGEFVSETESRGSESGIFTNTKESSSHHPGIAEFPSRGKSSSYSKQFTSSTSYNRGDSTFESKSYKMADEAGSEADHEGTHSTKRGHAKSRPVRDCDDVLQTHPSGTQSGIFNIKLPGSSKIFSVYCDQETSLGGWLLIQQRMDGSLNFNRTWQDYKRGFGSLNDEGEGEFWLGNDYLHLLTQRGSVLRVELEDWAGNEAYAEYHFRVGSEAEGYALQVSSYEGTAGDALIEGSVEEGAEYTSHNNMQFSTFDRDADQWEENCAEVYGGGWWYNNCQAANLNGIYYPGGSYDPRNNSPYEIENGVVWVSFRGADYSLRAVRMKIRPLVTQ
Sequence of UniProt P02671 (P02675 45-491, chain 2 of 3, further chain): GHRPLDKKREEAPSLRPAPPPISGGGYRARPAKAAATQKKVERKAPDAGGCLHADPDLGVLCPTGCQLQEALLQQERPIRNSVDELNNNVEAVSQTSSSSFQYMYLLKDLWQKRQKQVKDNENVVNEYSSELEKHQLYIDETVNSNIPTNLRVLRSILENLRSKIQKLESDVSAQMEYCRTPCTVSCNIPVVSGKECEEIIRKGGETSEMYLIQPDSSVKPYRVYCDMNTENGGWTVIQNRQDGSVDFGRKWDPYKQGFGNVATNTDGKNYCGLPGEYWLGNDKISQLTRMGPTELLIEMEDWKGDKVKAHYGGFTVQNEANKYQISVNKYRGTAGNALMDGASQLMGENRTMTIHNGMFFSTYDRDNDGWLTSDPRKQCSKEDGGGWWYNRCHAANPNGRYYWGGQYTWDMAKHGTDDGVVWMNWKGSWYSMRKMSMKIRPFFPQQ
Sequence of UniProt P02671 (P02679 other isoform, or with tags, fused parts or gaps, chain 3 of 3, further chain): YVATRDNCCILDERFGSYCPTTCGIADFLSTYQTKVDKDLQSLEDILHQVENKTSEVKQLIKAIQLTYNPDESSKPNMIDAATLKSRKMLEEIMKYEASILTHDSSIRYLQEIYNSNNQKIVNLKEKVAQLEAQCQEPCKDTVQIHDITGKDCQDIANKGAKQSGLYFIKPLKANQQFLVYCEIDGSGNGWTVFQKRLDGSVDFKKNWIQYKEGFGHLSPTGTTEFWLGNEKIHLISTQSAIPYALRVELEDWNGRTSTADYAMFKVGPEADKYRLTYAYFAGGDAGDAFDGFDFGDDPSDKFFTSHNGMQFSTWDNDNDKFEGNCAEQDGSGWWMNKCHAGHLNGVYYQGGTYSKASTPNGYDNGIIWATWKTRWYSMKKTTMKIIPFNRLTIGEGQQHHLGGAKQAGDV

K m of overall fibrin breakdown by plasmin (clot lysis time by turbidity against fibrinogen 0 to 5 µM, batroxobin clots, 5 nM active plasmin) [1] [µM]	K m of overall fibrin breakdown by plasmin (clot lysis time by turbidity against fibrinogen 0 to 5 µM, batroxobin clots, 5 nM active plasmin) [2] [µM]	Substance
1.3	1.1	human plasmin (from UniProt P00747 20-580) (enzyme)
4.9	3.1	porcine plasmin (from UniProt P06867 20-809; P06867 20-809) (enzyme)

Source: publication PMC12817190
